Laboratory results as given in patent US20240158494A1 (Biogen, published 2024).
Where two headings read alike, the source gives them in different places.

Key:
[1] = target: T1, cynomolgus monkey transferrin receptor 1 (TfR1), full length, expressed on cells (cynomolgus monkey, UniProt Q5RDH6 1-760 (Pongo abelii entry)); experiment: FACS on Ba/F3 cells, Fab supernatant
T1 construct: also called cyno TfR1; cyTfR

[2] = target: T2, human transferrin receptor 1 (TfR1), full length, expressed on cells (human, UniProt P02786 1-760); experiment: FACS on Ba/F3 cells, Fab supernatant
T2 construct: also called human TfR1; huTfR

[3] = target: T3, recombinant cynomolgus monkey TfR1 extracellular domain, His-tagged (cynomolgus monkey, UniProt Q5RDH6 87-760 (Pongo abelii entry)); experiment: SPR, TfR1 ECD-His captured, Fab injected, 1:1 fit
T3 construct: also called Cyno TfR1 ECD; cyno TfR1 ECD-His

[4] = target: T4, recombinant human TfR1 extracellular domain, His-tagged (human, UniProt P02786 89-760); experiment: SPR, TfR1 ECD-His captured, Fab injected, 1:1 fit
T4 construct: also called Human TfR1 ECD; human TfR1 ECD-His

[5] = target: T1, cynomolgus monkey transferrin receptor …; experiment: FACS on Ba/F3 cells, Fab supernatant; remark: listed apart in the source
[6] = target: T2, human transferrin receptor 1 (TfR1), …; experiment: FACS on Ba/F3 cells, Fab supernatant; remark: listed apart in the source

Binder	EC50 [1] [nM]	EC50 [2] [nM]	also measured
TfR1 ANTIBODY-A HC-H0 hIgG1 Fab′(1C)/LC-L0 hKappa (Fab, V domains shown, also called ANTIBODY-A H0/L0) VH: EVQLVESGGGLVQPGGSLRLSCAASGIDFSSSGYMAWVRQAPGKGLEWVGAIYTYSSNTYYAASVKGRFTISRDDSKNSLYLQMNSLKTEDTAVYYCARGTYGYTGYTYTMGYFSLWGQGTLVTVSS VL: DIQMTQSPSTLSASVGDRVTITCQASQNINSYLAWYQQKPGKAPKLLIYRASSLESGVPSRFSGSGSGTEFTLTISSLQPDDFATYYCQSYYYSGSSNYNAFGGGTKVEIKR	> 85	18	–
TfR1 ANTIBODY-A HC-H0 hIgG1 Fab′(1C)/LC-L1 hKappa (Fab, V domains shown, also called ANTIBODY-A H0/L1) VH: EVQLVESGGGLVQPGGSLRLSCAASGIDFSSSGYMAWVRQAPGKGLEWVGAIYTYSSNTYYAASVKGRFTISRDDSKNSLYLQMNSLKTEDTAVYYCARGTYGYTGYTYTMGYFSLWGQGTLVTVSS VL: DIQMTQSPSTLSASVGDRVTITCQASQNINSYLAWYQQKPGKAPKLLIYRASTLASGVPSRFSGSGSGTEFTLTISSLQPDDFATYYCQSYYYSGSSNYNAFGGGTKVEIKR	> 107	~19	–
TfR1 ANTIBODY-A HC-H1 hIgG1 Fab′(1C)/LC-L1 hKappa (Fab, V domains shown, also called ANTIBODY-A H1/L1) VH: QSLVESGGGLVQPGGSLRLSCAASGIDFSSSGYMAWVRQAPGKGLEWVGAIYTYSSNTYYAASVKGRFTISRDDSKNSLYLQMNSLKTEDTAVYYCARGTYGYTGYTYTMGYFSLWGQGTLVTVSS VL: DIQMTQSPSTLSASVGDRVTITCQASQNINSYLAWYQQKPGKAPKLLIYRASTLASGVPSRFSGSGSGTEFTLTISSLQPDDFATYYCQSYYYSGSSNYNAFGGGTKVEIKR	> 162	~30	–
TfR1 ANTIBODY-A HC-H1C hIgG1 Fab′(1C)/LC-L1 hKappa (Fab, V domains shown, also called ANTIBODY-A H1C/L1) VH: QSLVESGGGLVQPGGSLRLSCAASGIDFSSSGYMCWVRQAPGKGLEWVGCIYTYSSNTYYAASVKGRFTISRDDSKNSLYLQMNSLKTEDTAVYYCARGTYGYTGYTYTMGYFSLWGQGTLVTVSS VL: DIQMTQSPSTLSASVGDRVTITCQASQNINSYLAWYQQKPGKAPKLLIYRASTLASGVPSRFSGSGSGTEFTLTISSLQPDDFATYYCQSYYYSGSSNYNAFGGGTKVEIKR	~26	3.6	–
TfR1 ANTIBODY-A HC-H2 hIgG1 Fab′(1C)/LC-L2 hKappa (Fab, V domains shown, heavy chain derived; also called ANTIBODY-A H2/L2) VH: QSLVESGGGLVQPGGSLRLSCAASGIDFSSSGYMAWVRQAPGKGLEWVGAIYTYSSNTYYAASVKGRFTISKTSSTTVYLQMNSLKTEDTAVYYCARGTYGYTGYTYTMGYFSLWGQGTLVTVSS VL: ELDMTQSPSTLSASVGDRVTITCQASQNINSYLAWYQQKPGKAPKLLIYRASTLASGVPSRFSGSGSGTEFTLTISSLQPDDFATYYCQSYYYSGSSNYNAFGGGTKVEIKR	> 52	6.5	–
TfR1 ANTIBODY-A HC-H1 hIgG1 Fab′(1C)/LC-L2 hKappa (Fab, V domains shown, also called ANTIBODY-A H1/L2) VH: QSLVESGGGLVQPGGSLRLSCAASGIDFSSSGYMAWVRQAPGKGLEWVGAIYTYSSNTYYAASVKGRFTISRDDSKNSLYLQMNSLKTEDTAVYYCARGTYGYTGYTYTMGYFSLWGQGTLVTVSS VL: ELDMTQSPSTLSASVGDRVTITCQASQNINSYLAWYQQKPGKAPKLLIYRASTLASGVPSRFSGSGSGTEFTLTISSLQPDDFATYYCQSYYYSGSSNYNAFGGGTKVEIKR	–	> 74	–
TfR1 ANTIBODY-A HC-H1C hIgG1 Fab′(1C)/LC-L2 hKappa (Fab, V domains shown, also called ANTIBODY-A H1C/L2) VH: QSLVESGGGLVQPGGSLRLSCAASGIDFSSSGYMCWVRQAPGKGLEWVGCIYTYSSNTYYAASVKGRFTISRDDSKNSLYLQMNSLKTEDTAVYYCARGTYGYTGYTYTMGYFSLWGQGTLVTVSS VL: ELDMTQSPSTLSASVGDRVTITCQASQNINSYLAWYQQKPGKAPKLLIYRASTLASGVPSRFSGSGSGTEFTLTISSLQPDDFATYYCQSYYYSGSSNYNAFGGGTKVEIKR	~39	3.6	–
TfR1 ANTIBODY-A HC-H4C hIgG1 Fab′(1C)/LC-L2 hKappa (Fab, V domains shown, also called ANTIBODY-A H4C/L2) VH: QSLVESGGGLVQPGGSLRLSCKASGIDFSSSGYMCWVRQAPGKGLEWVGCIYTYSSNTYYASWAKGRFTISKTSSTTVYLQMNSLKTEDTAVYYCARGTYGYTGYTYTMGYFSLWGPGTLVTVSS VL: ELDMTQSPSTLSASVGDRVTITCQASQNINSYLAWYQQKPGKAPKLLIYRASTLASGVPSRFSGSGSGTEFTLTISSLQPDDFATYYCQSYYYSGSSNYNAFGGGTKVEIKR	3.3	1.6	Kd [3]: 6.2 nM; koff [3]: 0.0134 s⁻¹; kon [3]: 2.16e+06 M⁻¹ s⁻¹; Kd [4]: 1.6 nM; koff [4]: 0.00148 s⁻¹; kon [4]: 931000 M⁻¹ s⁻¹
TfR1 ANTIBODY-A HC-H1C hIgG1 Fab′(1C)/LC-L0 hKappa (Fab, V domains shown, also called ANTIBODY-A H1C/L0) VH: QSLVESGGGLVQPGGSLRLSCAASGIDFSSSGYMCWVRQAPGKGLEWVGCIYTYSSNTYYAASVKGRFTISRDDSKNSLYLQMNSLKTEDTAVYYCARGTYGYTGYTYTMGYFSLWGQGTLVTVSS VL: DIQMTQSPSTLSASVGDRVTITCQASQNINSYLAWYQQKPGKAPKLLIYRASSLESGVPSRFSGSGSGTEFTLTISSLQPDDFATYYCQSYYYSGSSNYNAFGGGTKVEIKR	15.5	2.5	–
TfR1 ANTIBODY-A HC-H0 hIgG1 Fab′(1C)/LC-L2 hKappa (Fab, V domains shown, also called ANTIBODY-A H0/L2) VH: EVQLVESGGGLVQPGGSLRLSCAASGIDFSSSGYMAWVRQAPGKGLEWVGAIYTYSSNTYYAASVKGRFTISRDDSKNSLYLQMNSLKTEDTAVYYCARGTYGYTGYTYTMGYFSLWGQGTLVTVSS VL: ELDMTQSPSTLSASVGDRVTITCQASQNINSYLAWYQQKPGKAPKLLIYRASTLASGVPSRFSGSGSGTEFTLTISSLQPDDFATYYCQSYYYSGSSNYNAFGGGTKVEIKR	–	> 70	–
TfR1 ANTIBODY-A HC-H0C hIgG1 Fab′(1C)/LC-L2 hKappa (Fab, V domains shown, also called ANTIBODY-A H0C/L2) VH: EVQLVESGGGLVQPGGSLRLSCAASGIDFSSSGYMCWVRQAPGKGLEWVGCIYTYSSNTYYAASVKGRFTISRDDSKNSLYLQMNSLKTEDTAVYYCARGTYGYTGYTYTMGYFSLWGQGTLVTVSS VL: ELDMTQSPSTLSASVGDRVTITCQASQNINSYLAWYQQKPGKAPKLLIYRASTLASGVPSRFSGSGSGTEFTLTISSLQPDDFATYYCQSYYYSGSSNYNAFGGGTKVEIKR	–	3.6	–
TfRANTIBODY-B HC-H4C/LC-L2 (C90V) hIgG1Fab′(1C) (Fab, V domains shown, also called ANTIBODY-B H4C/L2(C90V); H4C (C90V)/L2) VH: QSLVESGGGVVQPGRSLRLSCKASGFSFSNSYWICWVRQAPGKGLEWVGCINTDADSTNYASWARGRFTISKTSSTTVYLQMNSLRAEDTAVYYCARQNNVFDPGYNLWGPGTLVTVSS VL: ELVLTQSPSTLSASVGDRVTITCRASQNIGSNLAWYQQKPGKAPKLLIYDASKLESGVPSRFSGSGSGTEFTLTISSLQPDDFATYYCQVTVRGGAYGNAFGGGTKVEIKR	–	–	EC50 [5]: 2.2 nM; EC50 [6]: 4.9 nM
TfRANTIBODY-B HC-H1C/LC-L2 (C90V) hIgG1Fab′(1C) (Fab, V domains shown, also called ANTIBODY-B H1C/L2(C90V)) VH: QSLVESGGGVVQPGRSLRLSCAASGFSFSNSYWICWVRQAPGKGLEWVGCINTDADSTNYADSVKGRFTISKDNSKNTVYLQMNSLRAEDTAVYYCARQNNVFDPGYNLWGQGTLVTVSS VL: ELVLTQSPSTLSASVGDRVTITCRASQNIGSNLAWYQQKPGKAPKLLIYDASKLESGVPSRFSGSGSGTEFTLTISSLQPDDFATYYCQVTVRGGAYGNAFGGGTKVEIKR	–	–	EC50 [5]: 2.9 nM; EC50 [6]: 10.7 nM
TfRANTIBODY-B HC-H3C/LC-L2 (C90S) hIgG1Fab′(1C) (Fab, V domains shown, also called ANTIBODY-B H3C/L2(C90S)) VH: QSLVESGGGVVQPGRSLRLSCAASGFSFSNSYWICWVRQAPGKGLEWVGCINTDADSTNYASWARGRFTISKDNSKNTLYLQMNSLRAEDTAVYYCARQNNVFDPGYNLWGQGTLVTVSS VL: ELVLTQSPSTLSASVGDRVTITCRASQNIGSNLAWYQQKPGKAPKLLIYDASKLESGVPSRFSGSGSGTEFTLTISSLQPDDFATYYCQSTVRGGAYGNAFGGGTKVEIKR	–	–	EC50 [5]: 6.2 nM; EC50 [6]: 16.8 nM

Second part, led by results:

EC50 [1] [nM]	EC50 [2] [nM]	Binder	also measured
> 36	4.4	TfR1 ANTIBODY-A HC-H2 hIgG1 Fab′(1C)/LC-L1 hKappa (Fab, V domains shown, heavy chain derived; also called ANTIBODY-A H2/L1) VH: QSLVESGGGLVQPGGSLRLSCAASGIDFSSSGYMAWVRQAPGKGLEWVGAIYTYSSNTYYAASVKGRFTISKTSSTTVYLQMNSLKTEDTAVYYCARGTYGYTGYTYTMGYFSLWGQGTLVTVSS VL: DIQMTQSPSTLSASVGDRVTITCQASQNINSYLAWYQQKPGKAPKLLIYRASTLASGVPSRFSGSGSGTEFTLTISSLQPDDFATYYCQSYYYSGSSNYNAFGGGTKVEIKR	–
7.4	2.8	TfR1 ANTIBODY-A HC-H2C hIgG1 Fab′(1C)/LC-L2 hKappa (Fab, V domains shown, also called ANTIBODY-A H2C/L2) VH: QSLVESGGGLVQPGGSLRLSCAASGIDFSSSGYMCWVRQAPGKGLEWVGCIYTYSSNTYYAASVKGRFTISKTSSTTVYLQMNSLKTEDTAVYYCARGTYGYTGYTYTMGYFSLWGQGTLVTVSS VL: ELDMTQSPSTLSASVGDRVTITCQASQNINSYLAWYQQKPGKAPKLLIYRASTLASGVPSRFSGSGSGTEFTLTISSLQPDDFATYYCQSYYYSGSSNYNAFGGGTKVEIKR	Kd [3]: 7.8 nM; koff [3]: 0.0137 s⁻¹; kon [3]: 1.76e+06 M⁻¹ s⁻¹; Kd [4]: 2.2 nM; koff [4]: 0.00213 s⁻¹; kon [4]: 952000 M⁻¹ s⁻¹
10.4	1.6	TfR1 ANTIBODY-A HC-H3C hIgG1 Fab′(1C)/LC-L2 hKappa (Fab, V domains shown, also called ANTIBODY-A H3C/L2) VH: QSLVESGGGLVQPGGSLRLSCKASGIDFSSSGYMCWVRQAPGKGLEWVGCIYTYSSNTYYASWAKGRFTISKDSKNSVYLQMNSLKTEDTAVYYCARGTYGYTGYTYTMGYFSLWGPGTLVTVSS VL: ELDMTQSPSTLSASVGDRVTITCQASQNINSYLAWYQQKPGKAPKLLIYRASTLASGVPSRFSGSGSGTEFTLTISSLQPDDFATYYCQSYYYSGSSNYNAFGGGTKVEIKR	Kd [3]: 8.3 nM; koff [3]: 0.0178 s⁻¹; kon [3]: 2.16e+06 M⁻¹ s⁻¹; Kd [4]: 2.4 nM; koff [4]: 0.00215 s⁻¹; kon [4]: 886000 M⁻¹ s⁻¹
> 176	25	TfR1 ANTIBODY-A HC-H1 hIgG1 Fab′(1C)/LC-L0 hKappa (Fab, V domains shown, also called ANTIBODY-A H1/L0) VH: QSLVESGGGLVQPGGSLRLSCAASGIDFSSSGYMAWVRQAPGKGLEWVGAIYTYSSNTYYAASVKGRFTISRDDSKNSLYLQMNSLKTEDTAVYYCARGTYGYTGYTYTMGYFSLWGQGTLVTVSS VL: DIQMTQSPSTLSASVGDRVTITCQASQNINSYLAWYQQKPGKAPKLLIYRASSLESGVPSRFSGSGSGTEFTLTISSLQPDDFATYYCQSYYYSGSSNYNAFGGGTKVEIKR	–
